Data published in the supplement of paper PMC9170038.

System: MS2 coat protein
Test: apparent KD of MS2 coat protein; designed switch direction (-1 OFF switch, 1 ON switch): 1; higher = weaker reporter binding
Procedure, shortened: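 For each design, the apparent KD is the median over clusters of curves fitted to normalised cluster fluorescence. Clusters held RNA switches with common flanks, transcribed on Illumina chips by stalled E. coli RNA polymerase. These were titrated with SNAP-549-labelled MS2 coat protein, doubling from 0.7 or 1.5 nM to 3 µM, without input, with 200 uM small-molecule ligand, or with an oligonucleotide input.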

[1] = input ligand: microRNA oligo, concentration not stated
[2] = Eterna round: R95, input ligand: FMN 200 uM
[3] = Eterna round: R95, input ligand: microRNA oligo, concentration not stated
[4] = Eterna round: R95, input ligand: none

With “ACAUGAGACUUAGGAUAUGUUGUACCUACAUGUGACAUGAGGAUCACCCAUGUGGUAAGUAUGAGACAGAAGGAAGAGAUAUGU [Equivalence 29 - Jieux - Same State NG 2] (Eterna round: R96, puzzle: Same State NG 2)” the “apparent KD of MS2 coat protein” value (input ligand: FMN 200 uM) was 7.53 nM, the “apparent KD of MS2 coat protein” value [1] was 26.3 nM and the “apparent KD of MS2 coat protein” value (input ligand: none) was 54.7 nM.
In the case of “ACAUGAGACUUAGGAUAUGUUGUACCUACAUGUGACAUGAGGAUCACCCAUGUGGUAAGUAUGAGGCAGAAGGAAGAGAUAUGU [Equivalence 39 - Jieux - Same State NG 2] (Eterna round: R96, puzzle: Same State NG 2)”, the “apparent KD of MS2 coat protein” value (input ligand: FMN 200 uM) is reported as 23.5 nM, the “apparent KD of MS2 coat protein” value [1] is reported as 45.9 nM and the “apparent KD of MS2 coat protein” value (input ligand: none) is reported as 73.1 nM.
“ACAUGAGAGAUAGGAUAUCAUGUACCUACAUGUGACAUGAGGAUCACCCAUGUGGUAAGUAUGAGUGAGAAGGAUCAGAUAUGU [Equivalence 35 - Jieux - Same State NG 2] (Eterna round: R96, puzzle: Same State NG 2)” was tested, and the “apparent KD of MS2 coat protein” value (input ligand: FMN 200 uM) was 47.9 nM, the “apparent KD of MS2 coat protein” value [1] was 272 nM and the “apparent KD of MS2 coat protein” value (input ligand: none) was 467 nM.
For “ACAUGAGAGAUAGGAUAUCUUGUACCUACAUGUGACAUGAGGAUCACCCAUGUGGUAAGUAUGAGGGAGAAGGGUCAGAUAUGU [Equivalence 45 - Jieux - Same State NG 2] (Eterna round: R96, puzzle: Same State NG 2)”, the “apparent KD of MS2 coat protein” value [1] was 42.7 nM.
With “ACAUGAGAGAUAGGAUAUGCUGUACCUACAUGUGACAUGAGGAUCACCCAUGUGGUAAGUAUGAGGCAGAAGGAUCAGAUAUGU [Equivalence 49 - Jieux - Same State NG 2] (Eterna round: R96, puzzle: Same State NG 2)” the “apparent KD of MS2 coat protein” value (input ligand: FMN 200 uM) was 13.6 nM, the “apparent KD of MS2 coat protein” value [1] was 17.3 nM and the “apparent KD of MS2 coat protein” value (input ligand: none) was 23.2 nM.
With “ACAUGAGAUCGAGGAUAUUUUGUACCUACAUGUGACAUGAGGAUCACCCAUGUGGUAAGUAUGAGAAAGAAGGCGAAGAUAUGU [Equivalence 16 - Jieux - Same State NG 2] (Eterna round: R96, puzzle: Same State NG 2)” the “apparent KD of MS2 coat protein” value [1] was 29.3 nM.
“ACAUGAGGAUCACCCAUGUAACACCUGAAAAUAAAACGAACACAGGAUAUCCCAGCAUGACGCCGGGAGAAGGGUGAUCGAAGA [Quorer] (Eterna round: R96, puzzle: Same State NG 3)” was tested, and the “apparent KD of MS2 coat protein” value (input ligand: FMN 200 uM) was 124 nM, the “apparent KD of MS2 coat protein” value [1] was 118 nM and the “apparent KD of MS2 coat protein” value (input ligand: none) was 52.8 nM.
For “ACAUGAGGAUCACCCAUGUAACACCUGAAAAUAAAACGAACACAGGAUAUCCCGGCAAGACACCGGGAGAAGGGUGAUCGAAGA [Eresorbe] (Eterna round: R96, puzzle: Same State NG 3)”, the “apparent KD of MS2 coat protein” value (input ligand: FMN 200 uM) was 411 nM, the “apparent KD of MS2 coat protein” value [1] was 13.6 nM and the “apparent KD of MS2 coat protein” value (input ligand: none) was 90.9 nM.
With “ACAUGAGGAUCACCCAUGUCUUUAUCCGAUUCUUCAUUUACGUAGGAUAUCGUCUAUACUAUCAUCGAGAAGGACGUUCUUUAA [JR_SSNG3_Sub070] (Eterna round: R96, puzzle: Same State NG 3)” the “apparent KD of MS2 coat protein” value [1] was 13.9 nM.
“ACGCCCUCAGUAGGAUAUGGGAAAGGAAGUGUACCAGAAGGACUGGUUGAACAUGAGGAUCACCCAUGUUCAACGACAGGGCAA [PowerStrip SSNG 1.20] (Eterna round: R96, puzzle: Same State NG 1)” was tested, and the “apparent KD of MS2 coat protein” value (input ligand: FMN 200 uM) was 18.6 nM, the “apparent KD of MS2 coat protein” value [1] was 13.9 nM and the “apparent KD of MS2 coat protein” value (input ligand: none) was 18.6 nM.
For “ACGCCUAAACGGCGAAAACGACAUGAGGAUCACCCAUGUACACAGGAUAUCAGCCUGCAACAGGCUGAGAAGGGUGAACCUAAA [Atatmadiar] (Eterna round: R96, puzzle: Same State NG 3)”, the “apparent KD of MS2 coat protein” value (input ligand: FMN 200 uM) was 711 nM, the “apparent KD of MS2 coat protein” value [1] was 35.5 nM and the “apparent KD of MS2 coat protein” value (input ligand: none) was 155 nM.
With “ACUCAGUACAAUUUAGAUCUACAUGAGGAUCACCCAUGUACUGAGGAUAUCAGCUCGUUUAGAGCUGAGAAGGCAGUUGUACUA [SSNG3/10-A3] (Eterna round: R96, puzzle: Same State NG 3)” the “apparent KD of MS2 coat protein” value (input ligand: FMN 200 uM) was 108 nM, the “apparent KD of MS2 coat protein” value [1] was 221 nM and the “apparent KD of MS2 coat protein” value (input ligand: none) was 311 nM.
“ACUCUCACAGUAGGAUAUGUAGGAUAUGCCUACAUGAGGAUCACCCAUGUAAACAUGGCAGAAGGAUAGAAGGACUGACAUGGG [pwkr ssNG2 2FMN + 1F5.3] (Eterna round: R96, puzzle: Same State NG 2)” was tested, and the “apparent KD of MS2 coat protein” value (input ligand: FMN 200 uM) was 274 nM, the “apparent KD of MS2 coat protein” value [1] was 233 nM and the “apparent KD of MS2 coat protein” value (input ligand: none) was 278 nM.
With “AGAAAGAAACAUGAGGAUCACCCAUGUACAAGCUUUUUGCUCGUCUUAUUACAUGGGUUCAUGGGUGAUCGGGAUGU [Tim MacKenzie] (puzzle: Sensor for hsa-mir-208a version 2)” the “apparent KD of MS2 coat protein” value [2] was 11.1 nM, the “apparent KD of MS2 coat protein” value [3] was 13.1 nM and the “apparent KD of MS2 coat protein” value [4] was 19.9 nM.
“AGAAGACAUGAGGAUCACCCAUGUCCCUCAUGCGUAGGAUAUAUAAGAAGAAAGAAAAGGAUAGAAGGACGAAAAG [Default title] (puzzle: Same State 1)” was tested, and the “apparent KD of MS2 coat protein” value [2] was 97.5 nM, the “apparent KD of MS2 coat protein” value [3] was 119 nM and the “apparent KD of MS2 coat protein” value [4] was 194 nM.
In the case of “AGAGAAGAAGCUGAGGAUAUCGUAAGGAGGACAUGAGGAUCACCCAUGUGUGUGGAAUUGGAGGACGAGAAGGCAGAGGAGUGGG [JR_SS2_Sub056] (puzzle: Same State 2)”, the “apparent KD of MS2 coat protein” value [2] is reported as 25.1 nM, the “apparent KD of MS2 coat protein” value [3] is reported as 28.3 nM and the “apparent KD of MS2 coat protein” value [4] is reported as 27.8 nM.
“AGAGGAGGAGCAGGAUAUGCGAAGAAGAACGAGGUAGAAGGGCUCAUGCGAUGACAUGAGGAUCACCCAUGUACCGCGCGAGGA [AK SSNG1-V2-8.2] (Eterna round: R96, puzzle: Same State NG 1)” was tested, and the “apparent KD of MS2 coat protein” value (input ligand: FMN 200 uM) was 207 nM, the “apparent KD of MS2 coat protein” value [1] was 209 nM and the “apparent KD of MS2 coat protein” value (input ligand: none) was 142 nM.
With “AGAGGAGGCGCAGGAUAUACGACGGAGGACGUGGUAGAAGGGUGCAUGCGAUAACAUGAGGAUCACCCAUGUACCGCGCGACGA [AK SSNG1-V2-17] (Eterna round: R96, puzzle: Same State NG 1)” the “apparent KD of MS2 coat protein” value (input ligand: FMN 200 uM) was 210 nM, the “apparent KD of MS2 coat protein” value [1] was 30.2 nM and the “apparent KD of MS2 coat protein” value (input ligand: none) was 198 nM.
With “AGAUAAGUCACAGGAUAUUCCUACAUUAAUAUGGAAGAAGGGUGAGCAUGAUUCGAUACAUGAGGAUCACCCAUGUAUCCGCGA [Eternabot solution 31] (Eterna round: R96, puzzle: Same State NG 1)” the “apparent KD of MS2 coat protein” value [1] was 54 nM.
In the case of “AGAUCAUGACGAGGAUAUCCGACAUGAGGAUCACCCAUGUAUGUCGGAGGACGCGUACGUCCAAUGGAGAAGGCGUCGUGGUCA [JL SSNG2 1.03] (Eterna round: R96, puzzle: Same State NG 2)”, the “apparent KD of MS2 coat protein” value (input ligand: FMN 200 uM) is reported as 18.2 nM, the “apparent KD of MS2 coat protein” value [1] is reported as 73.7 nM and the “apparent KD of MS2 coat protein” value (input ligand: none) is reported as 82.5 nM.
In the case of “AGAUCAUGACGAGGAUAUGGUACAUGAGGAUCACCCAUGUAUGUACCAUAAUUAGUAUUAGGAAACCAGAAGGCGUCGUGGUCA [JL SSNG2 1.18] (Eterna round: R96, puzzle: Same State NG 2)”, the “apparent KD of MS2 coat protein” value (input ligand: FMN 200 uM) is reported as 10.1 nM, the “apparent KD of MS2 coat protein” value [1] is reported as 55.7 nM and the “apparent KD of MS2 coat protein” value (input ligand: none) is reported as 85.4 nM.
“AGAUCAUGACGAGGAUAUGGUACAUGAGGAUCACCCAUGUAUGUACCAUAGCAACAGCUAGGAAACCAGAAGGCGUCGUGGUCA [jandersonlee JLSSNG2 1.18 Native F5 + F7] (Eterna round: R96, puzzle: Same State NG 2)” was tested, and the “apparent KD of MS2 coat protein” value (input ligand: FMN 200 uM) was 13.6 nM, the “apparent KD of MS2 coat protein” value [1] was 15.6 nM and the “apparent KD of MS2 coat protein” value (input ligand: none) was 26.6 nM.
In the case of “AGAUCAUGACGAGGAUAUGGUACAUGAGGAUCACCCAUGUAUGUACUAUAAUUCGAAUGAGGAAUCCAGAAGGCGUCGUGGUCA [JL SSNG2 1.15] (Eterna round: R96, puzzle: Same State NG 2)”, the “apparent KD of MS2 coat protein” value (input ligand: FMN 200 uM) is reported as 15.3 nM, the “apparent KD of MS2 coat protein” value [1] is reported as 29.6 nM and the “apparent KD of MS2 coat protein” value (input ligand: none) is reported as 55.4 nM.
In the case of “AGAUGUUAAUCAGGAUAUGGGCACAUGAGGAUCACCCAUGUAAAUUCGAUACUAUGUGGACACGUCUAGAAGGGAUGGCUAACA [SameState NG2 #83] (Eterna round: R96, puzzle: Same State NG 2)”, the “apparent KD of MS2 coat protein” value (input ligand: FMN 200 uM) is reported as 125 nM, the “apparent KD of MS2 coat protein” value [1] is reported as 73.5 nM and the “apparent KD of MS2 coat protein” value (input ligand: none) is reported as 106 nM.
For “AGAUGUUAAUCAGGAUAUGGGCACAUGAGGAUCACCCAUGUAACGUAGAUACGAUGUGGUCAAGUCUAGAAGGGAUAGCUAACA [SameState NG2 #78] (Eterna round: R96, puzzle: Same State NG 2)”, the “apparent KD of MS2 coat protein” value (input ligand: FMN 200 uM) was 125 nM, the “apparent KD of MS2 coat protein” value [1] was 60.7 nM and the “apparent KD of MS2 coat protein” value (input ligand: none) was 65.9 nM.
In the case of “AGCAAAGCGACAGGAUAUGGUAAGGAUCUCUUACCAGAAGGGUCAAGUGCAUGACAUGAGGAUCACCCAUGUAGGUUGUUUACC [Eternabot solution 44] (Eterna round: R96, puzzle: Same State NG 1)”, the “apparent KD of MS2 coat protein” value (input ligand: FMN 200 uM) is reported as 18.2 nM, the “apparent KD of MS2 coat protein” value [1] is reported as 18.5 nM and the “apparent KD of MS2 coat protein” value (input ligand: none) is reported as 26.5 nM.
For “AGCCGAGACACAGGAUAUAGAUAUCUACAUGAGGAUCACCCAUGUAGCAACACGUGGUAGUGAUACUAGAAGGGUGCUCGGCGC [Omei SS(NG)2 Cv9] (Eterna round: R96, puzzle: Same State NG 2)”, the “apparent KD of MS2 coat protein” value (input ligand: FMN 200 uM) was 20.2 nM, the “apparent KD of MS2 coat protein” value [1] was 60 nM and the “apparent KD of MS2 coat protein” value (input ligand: none) was 73.1 nM.
